Laboratory results: article PMC11180174 (2024)

B1: 7F3 (antibody, V domains shown)
VH: EVQLVESGGGLVKPGRSLRLSCTASGFTFGDYAMSWFRQAPGKGLEWVGFIRSKAYGGTTEYAASVKGRFTISRDDSKSIAYLQMNSLKTEDTAVYYCTRDRYARYDILTGLSPAGADYFYYAMDVWGQGTTVTVSS
VL: EIVLTQSPATLSLSPGERATLSCRASQSVSSYLAWYQQKPGQAPRLLIYDASNRATGIPARFSGSGSGTDFTLTISSLEPEDFAVYYCQQRSNWPQYTFGQGTKLEIK
B2: LY-CoV1404 (antibody, V domains shown)
VH: QITLKESGPTLVKPTQTLTLTCTFSGFSLSISGVGVGWLRQPPGKALEWLALIYWDDDKRYSPSLKSRLTISKDTSKNQVVLKMTNIDPVDTATYYCAHHSISTIFDHWGQGTLVTVSS
VL: QSALTQPASVSGSPGQSITISCTATSSDVGDYNYVSWYQQHPGKAPKLMIFEVSDRPSGISNRFSGSKSGNTASLTISGLQAEDEADYYCSSYTTSSAVFGGGTKLTVL

Molecular target: SARS-CoV-2 (Wuhan-Hu-1 strain) wild-type spike RBD with C-terminal 8xHis (SARS-CoV-2, UniProt P0DTC2 319-541)
Experiment: BLI

Binder	Kd [nM]
B1	< 0.01
B2	< 0.01
